From publication PMC2796168 (2009)

B1: Evasin-1 WT (natural protein)
chain: EDDEDYGDLGGCPFLVAENKTGYPTIVACKQDCNGTTETAPNGTRCFSIGDEGLRRMTANLPYDCPLGQCSNGDCIPKETYEVCYRRNWRDKKN
B2: CCL3/CCL5 chimera (ligand)
chain: ASLAADTPTACCFAYIARPLPRAHIKEYFYTSGKCSNPAVVFVTRKNRQVCANPEKKWVREYINSLEMS
B3: CCL18 (protein)
chain: AQVGTNKELCCLVYTSWQIPQKFIVDYSETSPQCPKPGVILLTKRGRQICADPNKKWVQKYISDLKLNA
modifications: disulfide (positions not given here)
B4: CCL3 (ligand)
chain: SLAADTPTACCFSYTSRQIPQNFIADYFETSSQCSKPGVIFLTKRSRQVCADPSEEWVQKYVSDLELSA
B5: Δ4CCL3 (ligand)
chain: ADTPTACCFSYTSRQIPQNFIADYFETSSQCSKPGVIFLTKRSRQVCADPSEEWVQKYVSDLELSA
B6: CCL4 (protein)
chain: APMGSDPPTACCFSYTARKLPRNFVVDYYETSSLCSQPAVVFQTKRSKQVCADPSESWVQEYVYDLELN
modifications: disulfide (positions not given here)

What was measured:
CCL3 [1] = biological target: B4; assay: SPR; immobilized CCL3
CCL3 [2] = biological target: B4; assay: SPR; immobilized CCL3
Evasin-1 WT [3] = biological target: B1; assay: SPR
Evasin-1 WT [4] = biological target: B1; assay: SPR
Evasin-1 F14A W89A [5] = biological target: T1, Evasin-1 F14A W89A (Rhipicephalus sanguineus, UniProt P0C8E7 21-114, F14A | W89A); assay: SPR; immobilized CCL3
Evasin-1 F14A W89A [6] = biological target: T1, Evasin-1 F14A W89A; assay: SPR; immobilized CCL3; remark: listed apart in the source

Binder | Kd (CCL3 [1]) [nM] | koff (CCL3 [2]) [s⁻¹] | Kd (Evasin-1 WT [3]) [nM] | koff (Evasin-1 WT [4]) [s⁻¹] | Kd (Evasin-1 F14A W89A [5]) [nM] | koff (Evasin-1 F14A W89A [6]) [s⁻¹]
B1 | 8 | 0.00276 |  |  |  | 
B2 |  |  | 1.02 | 0.0038 |  | 
B3 |  |  | 3.21 | 0.0111 |  | 
B4 |  |  | 0.12 | 0.00243 | 32.2 | 0.0146
B5 |  |  | 0.17 | 0.00041 |  | 
B6 |  |  | 0.51 | 0.0022 |  | 
